Patent US20170254807

Experiments:
[1] = bead aggregation assay, fluorescence microscopy
[2] = bead aggregation assay, flow cytometry, experiment 1, before the 90 min incubation

B1: Fc-D1/D2 (mBetacam D1-D2 domain, aa 33-239, fused to human IgG1 Fc; pFUSE-Fc-D1/D2) (protein)
chain: LKVTVPSYTVHGIRGQALYLPVHYGFHTPASDIQIIWLFERSHTMPKYLLGSVNKSVVPDLEYQHKFTMMPPNASLLINPLQFTDEGNYIVKVNIQGNGTLSASQKIQVTVDDPVMKPMVQFHPASGAVEYVGNITLTCQVEGGTRLVYQWRKSGKPISINSSHSFSPQNNTLWIVPVTKEDIGNYTCLVSNPVSEMESDIIMPTIY
- aggregate size [1]: Aggregates of >100 beads were observed

B2: Fc-D3 (mBetacam D3 domain, aa 240-335, fused to human IgG1 Fc; pFUSE-Fc-D3) (protein)
chain: YGPYGLQVNSDKGLKVGEVFTVDLGEAVLFDCSADSYPPNTYSWIQRSDNTTHVIKHGPHLEVASEKVAQKTADYVCCAYNNITGRRDETRFTVII
- P3 (aggregates) prior to incubation [2]: P3 prior to incubation is 40.8%
